According to US20240317847A1 (Bayer, published 2024):

T1: human IL-11 (human, UniProt P20809 22-199)
T1 sequence: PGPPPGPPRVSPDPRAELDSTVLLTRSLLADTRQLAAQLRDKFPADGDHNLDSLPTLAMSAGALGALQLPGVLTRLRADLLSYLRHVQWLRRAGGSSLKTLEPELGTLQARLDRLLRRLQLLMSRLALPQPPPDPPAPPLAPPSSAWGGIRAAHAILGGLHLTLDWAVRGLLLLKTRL

T2: murine IL-11 (mouse, UniProt P47873 22-199)
T2 sequence: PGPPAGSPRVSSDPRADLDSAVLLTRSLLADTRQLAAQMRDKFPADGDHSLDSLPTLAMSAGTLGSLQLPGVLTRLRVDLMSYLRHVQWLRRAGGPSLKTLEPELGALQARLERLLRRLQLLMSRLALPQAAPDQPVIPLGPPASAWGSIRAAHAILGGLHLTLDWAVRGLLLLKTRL

T3: cynomolgus IL-11 (cynomolgus, UniProt P20808 22-199)
T3 sequence: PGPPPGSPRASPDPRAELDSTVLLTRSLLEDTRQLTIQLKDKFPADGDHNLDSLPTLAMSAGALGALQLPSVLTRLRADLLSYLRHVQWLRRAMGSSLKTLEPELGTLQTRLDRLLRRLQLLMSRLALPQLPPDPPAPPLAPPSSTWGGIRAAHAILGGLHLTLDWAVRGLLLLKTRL

T4: rat IL-11 (rat, UniProt Q99MF5 22-199)
T4 sequence: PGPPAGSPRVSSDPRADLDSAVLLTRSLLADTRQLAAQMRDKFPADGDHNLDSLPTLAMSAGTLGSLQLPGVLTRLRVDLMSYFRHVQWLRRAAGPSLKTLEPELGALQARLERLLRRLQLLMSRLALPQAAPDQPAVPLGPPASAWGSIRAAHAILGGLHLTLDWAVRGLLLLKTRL


What was measured:
[1] = biological target: T1, human IL-11; test: cell-based or functional assay
[2] = biological target: T2, murine IL-11; test: cell-based or functional assay
[3] = biological target: T3, cynomolgus IL-11; test: cell-based or functional assay
[4] = biological target: T4, rat IL-11; test: cell-based or functional assay
[5] = biological target: T1, human IL-11; test: SPR 37 C, antibody captured, IL-11 as analyte
Experimental: (§1) To assess the binding kinetics and affinity of anti-IL-11 antibodies as well as their species cross-reactivity profile, binding assays were conducted using surface plasmon resonance (SPR). Binding assays were performed on a Biacore T200 instrument or on a Biacore 8K+ instrument (Cytiva) at 37° C. using assay buffer HBS EP+, 300 mM NaCl, 1 mg/ml BSA, 0.05% NaN3. Antibodies were captured either via anti-human Fc IgGs (“Human antibody capture kit”, Order No. BR100839, Cytiva) or via anti-mouse Fc IgGs (“Mouse antibody capture kit, Order No. BR100383, Cytiva) covalently amine coupled to a Series S CM5 sensor chip (Cytiva) depending on the isotype. The amine coupling was carried out according to the manufacturer's instructions using 1-ethyl-3-(3-dimethylaminopropyl) carbodiimide hydrochloride (EDC), N-hydroxysuccinimide (NHS) and ethanolamine HCl, pH 8.5 (“Amine Coupling Kit” BR-1000-50, Cytiva.). Human, mouse, cynomolgus or rat IL-11 was used as analyte at several dilutions within the concentration range from 0.05-200 nM. For binding assays with only one concentration 200 nM IL-11 was used. The sensor surface was regenerated with glycine pH 1.7 after each antigen injection. Obtained sensorgrams were double referenced (subtraction of reference flow cell signal and buffer injection) and were fitted to a 1:1 Langmuir binding model to derive kinetic data using the Biacore T200 Evaluation software or the Biacore Insight software. If no value is reported, there was either no binding or very low binding and multiphasic binding behavior. Values below 1E-12 were considered to be below the dynamic range of the instrument and set to <1E-12.

[6] = biological target: T2, murine IL-11; test: SPR 37 C, antibody captured, IL-11 as analyte
Experimental: as §1

[7] = biological target: T3, cynomolgus IL-11; test: SPR 37 C, antibody captured, IL-11 as analyte
Experimental: as §1

[8] = biological target: T4, rat IL-11; test: SPR 37 C, antibody captured, IL-11 as analyte
Experimental: as §1

[9] = biological target: T1, human IL-11; test: Di-complex ELISA, competitor canine IL11RA-Fc on coated IL-11;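 on Efficacy (%): signal drop relative to signal at lowest antibody concentration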
Experimental: (§2) The assay is performed using streptavidin coated microtiter plates (Greiner bio-one, #781997). In a first step, 10 nM biotinylated mouse IL-11 (Invigate, Germany, e.g., lot #C210819-09) or human IL-11 (Invigate, Germany, e.g., lot #C121021-19) is coated in 25 μl PBS on the plate at 4° C. overnight. Next day, the plate is washed three times with 50 μl PBST and then blocked with 50 μl SmartBlock (Candor, #113125) for one hour at room temperature (RT). After additional three washes with PBST, 25 μl of a mixture of the murine anti IL-11 antibody and recombinant canine IL11RA-Fc fusion protein (Sino Biological, #70078-D02H) in PBS-T, 10% Smartblock are added simultaneously to the plate and incubated for one hour at RT. […] After three additional washes with PBS-T, 25 μl anti-human-POD (Sigma, #A0170) in PBS-T, 10% Smartblock is added and incubated for 1 hour at RT. After a final three washes with PBS-T, 25 μl AmplexRed (Fisher Scientific, A12222), 1/1000 in PBS, 0,003% H₂O₂, is added as substrate and incubated for 15 min at RT in the dark. Then, the fluorescence is measured with a plate reader at 535/595 nm. Signals from dose responses were used to calculate IC50 values (GraphPad Prism). Efficacy was calculated as [(signal measured at lowest antibody concentration−signal measured at the highest antibody concentration)×100] divided by (signal measured at lowest antibody concentration−signal measured in the absence of IL11Ra).
(§3) IgG converted antibodies were subjected to the experimental assay procedure described in Example 18.

[10] = biological target: T2, murine IL-11; test: as above
Experimental: as §2, §3

| RGA Efficacy (%) [1] [%] | RGA Efficacy (%) [2] [%] | RGA IC50 [2] [nM] | RGA Efficacy (%) [3] [%] | RGA IC50 [3] [nM] | RGA Efficacy (%) [4] [%] | RGA IC50 [4] [nM] | Kd [5] [nM] | Kd [6] [nM] | Kd [7] [nM] | Kd [8] [nM] | Efficacy (%) [9] [%] | Efficacy (%) [10] [%] | IC50 [10] [nM] | RGA IC50 [1] [nM] | Binder |
| --- | --- | --- | --- | --- | --- | --- | --- | --- | --- | --- | --- | --- | --- | --- | --- |
| 81.2 | 96.9 | 0.89 | 87.8 | 0.44 | 89.9 | 1.8 | 0.34 | 0.23 | 0.2 | 0.33 | 36.3 | 43.4 | 2.6 | – | TPP-29528 (antibody, mouse IgG1, mIgG1, Lambda) heavy: EVQLLESGGGLVQPGGSLRLSCAASGFTFSSYGMHWVRQAPGKGLEWVAVISYDGSYKYYADSVKGRFTISRDNSKNTLYLQMNSLRAEDTAVYYCAAGVPDYWGQGTLVTVSSAKTTPPSVYPLAPGSAAQTNSMVTLGCLVKGYFPEPVTVTWNSGSLSSGVHTFPAVLQSDLYTLSSSVTVPSSTWPSETVTCNVAHPASSTKVDKKIVPRDCGCKPCICTVPEVSSVFIFPPKPKDVLTITLTPKVTCVVVDISKDDPEVQFSWFVDDVEVHTAQTQPREEQFNSTFRSVSELPIMHQDWLNGKEFKCRVNSAAFPAPIEKTISKTKGRPKAPQVYTIPPPKEQMAKDKVSLTCMITDFFPEDITVEWQWNGQPAENYKNTQPIMDTDGSYFVYSKLNVQKSNWEAGNTFTCSVLHEGLHNHHTEKSLSHSPGK light: QSVLTQPPSASGTPGQRVTISCSGSSSNIGSDYDVHWYQQLPGTAPKLLIYSNEERPSGVPDRFSGSKSGTSASLAISGLRSEDEADYYCSAWDSSLSGPVFGGGTKLTVLGQPKSSPSVTLFPPSSEELETNKATLVCTITDFYPGVVTVDWKVDGTPVTQGMETTQPSKQSNNKYMASSYLTLTARAWERHSSYSCQVTHEGHTVEKSLSRADCS |
| 100 | 101 | 1.4 | 97.2 | 0.68 | 101 | 1.4 | 0.0026 | 0.004 | 1.1 | 0.02 | 2 | 4.8 | – | 1.6 | TPP-29523 (antibody, mouse IgG1, mIgG1, Lambda) heavy: QVQLVESGGGVVQPGRSLRLSCAASGFTFSHYDMHWVRQAPGKGLEWVAVISYEGSVKFYADSVKGRFTISRDNSKNTLYLQMNSLRAEDTAVYYCARTPGFHFDYWGQGTLVTVSSAKTTPPSVYPLAPGSAAQTNSMVTLGCLVKGYFPEPVTVTWNSGSLSSGVHTFPAVLQSDLYTLSSSVTVPSSTWPSETVTCNVAHPASSTKVDKKIVPRDCGCKPCICTVPEVSSVFIFPPKPKDVLTITLTPKVTCVVVDISKDDPEVQFSWFVDDVEVHTAQTQPREEQFNSTFRSVSELPIMHQDWLNGKEFKCRVNSAAFPAPIEKTISKTKGRPKAPQVYTIPPPKEQMAKDKVSLTCMITDFFPEDITVEWQWNGQPAENYKNTQPIMDTDGSYFVYSKLNVQKSNWEAGNTFTCSVLHEGLHNHHTEKSLSHSPGK light: QSVLTQPPSASGTPGQRVTISCSGSSSNIGSNYVNWYQQLPGTAPKLLIYYDDLRPSGVPDRFSGSKSGTSASLAISGLRSEDEADYYCSAWDDSLSGVVFGGGTKLTVLGQPKSSPSVTLFPPSSEELETNKATLVCTITDFYPGVVTVDWKVDGTPVTQGMETTQPSKQSNNKYMASSYLTLTARAWERHSSYSCQVTHEGHTVEKSLSRADCS |
| 100 | 101 | 1.2 | 99.2 | 0.89 | 99.7 | 1 | 0.01 | 0.0035 | 0.61 | 0.023 | 6.8 | 12.8 | – | 1.8 | TPP-29519 (antibody, mouse IgG1, mIgG1, Lambda) heavy: QVQLVESGGGVVQPGRSLRLSCAASGFTFSHYDMHWVRQAPGKGLEWVAVISYHGSVKFYADSVKGRFTISRDNSKNTLYLQMNSLRAEDTAVYYCARTPGFHFDYWGQGTLVTVSSAKTTPPSVYPLAPGSAAQTNSMVTLGCLVKGYFPEPVTVTWNSGSLSSGVHTFPAVLQSDLYTLSSSVTVPSSTWPSETVTCNVAHPASSTKVDKKIVPRDCGCKPCICTVPEVSSVFIFPPKPKDVLTITLTPKVTCVVVDISKDDPEVQFSWFVDDVEVHTAQTQPREEQFNSTFRSVSELPIMHQDWLNGKEFKCRVNSAAFPAPIEKTISKTKGRPKAPQVYTIPPPKEQMAKDKVSLTCMITDFFPEDITVEWQWNGQPAENYKNTQPIMDTDGSYFVYSKLNVQKSNWEAGNTFTCSVLHEGLHNHHTEKSLSHSPGK light: QSVLTQPPSASGTPGQRVTISCSGSSSNIGSNYVSWYQQLPGTAPKLLIYYDDLRPSGVPDRFSGSKSGTSASLAISGLRSEDEADYYCSAWDDSLSGVVFGGGTKLTVLGQPKSSPSVTLFPPSSEELETNKATLVCTITDFYPGVVTVDWKVDGTPVTQGMETTQPSKQSNNKYMASSYLTLTARAWERHSSYSCQVTHEGHTVEKSLSRADCS |
